{"source": "patent US9393309B2", "about": "“Self-gelatinizable nucleic acid” (Kyoto University, priority 2011, dated 2016)", "assay_type_in_all_cases": "physicochemical", "key": {"[1]": {"experiment": "Formation of hydrogel from nucleic acid units without ligase", "conditions": "for gel formation singly or on mixing: final DNA concentration 2 mM, NaCl 150 mM; for gel formation: without DNA ligase", "experimental": "A NaCl solution was added to an ODN solution (polypodna) such that the final Na^+ concentration was 5 to 150 mM. The gel formation and the gel strength were measured by a gel strength analyzer (gel strength meter, Nakayamadenki Co., Ltd, Osaka).\nA structure to be a hydrogel (a nucleic acid monomer and an estimated nucleic acid unit) in conditions at room temperature, at 5 mM to 150 mM sodium chloride concentration (150 mM is substantially physiological concentration), and not containing a DNA ligase was elucidated. […] For convenience, nucleic acid units estimated to be formed according to the number of nucleic acid monomers capable of constituting the nucleic acid unit were represented by xxxpodna (xxxpod-like structure forming nucleic acid, xxx is substituted by tri (3), tetra (4) and the like, according to the number of nucleic acid monomers capable of constituting the nucleic acid unit). In Table 2 described below, xxxpodna is an estimated nucleic acid unit, and each of xxx-Y-N is a nucleic acid monomer that can be a constituent element of the nucleic acid unit (xxxpodna) which is mentioned above thereof. When the descriptions of Ys are different from each other, different nucleic acid units can be formed. N denotes numbering of nucleic acid monomers constituting each of the estimated nucleic acid units.\nUnlike (1-1) described above, gelation can be controlled by using a nucleic acid monomer including cohesive protruding ends which are not attached to themselves (that is, not palindrome sequence)."}, "[2]": {"experiment": "Percentage of remaining gels with the passage of time", "experimental": "Gels were formed by adjusting the NaCl concentration at 150 mM in an aqueous solution containing Tetrapodna (12-14-14) (SEQ ID NOs.: 30, 31, 32 and 33) at a DNA concentration of 0.1 mM, 0.25 mM or 0.5 mM, and the percentage of the remaining gels was measured with the passage of time. The results are shown in a graph in the left upper side of FIG. 17.\nGels were formed in conditions at a certain DNA concentration (0.5 mM) and a certain NaCl concentration (150 mM), and the percentage of the remaining gels was measured with the passage of time by using Tetrapodna (respectively, SEQ ID NOs.: 2, 4, 5 and 6, SEQ ID NOs.: 18, 19, 20 and 21, SEQ ID NOs.: 22, 23, 24 and 25, SEQ ID NOs.: 26, 27, 28 and 29, as well as SEQ ID NOs.: 30, 31, 32 and 33) having various lengths of the cohesive protruding end (4, 6, 8, 10 or 12 bases). The results are shown in a graph in the left lower side of FIG. 17. […] When 12 hours had passed, the percentage of the remaining gels became about 50%.\nGels were formed by variously changing the NaCl concentrations (5 mM, 50 mM, 100 mM or 150 mM) of an aqueous solution containing Tetrapodna (12-14-14) (SEQ ID NOs.: 30, 31, 32 and 33) at a DNA concentration of 0.5 mM, and the percentage of the remaining gels was measured with the passage of time. The results are shown in a graph in the right upper side of FIG. 17. […] At a low salt concentration (5 mM), almost all the formed gels became in a sol state when about 6 hours had passed. When the salt concentration was increased to 50 mM, solation tendency was weakened, a change from a gel into a sol occurred moderately (about 40% when 12 hours had passed).\nThe percentage of the remaining gels was measured with the passage of time in the same manner as in (8-3) except that Tetrapodna (4-18-18) (SEQ ID NOs.: 2, 4, 5 and 6) was used instead of Tetrapodna (12-14-14) (SEQ ID NOs.: 30, 31, 32 and 33). The results are shown in a graph in the right lower side of FIG. 17. […] In (8-3), Tetrapodna (12-14-14) (the length of the cohesive protruding end is 12 bases) was used. In (8-4), Tetrapodna (4-18-18) (the length of the cohesive protruding end is 4 bases) was used."}, "[3]": {"experiment": "Evaluation of gelation at various DNA concentrations and NaCl concentrations", "parameters": "key: ◯: the mark “∘” is given to cases in which gelation was observed; X: the mark “x” is given to cases of a solution state (sol-state)", "experimental": "[…] The gel formation and the gel strength were measured by a gel strength analyzer (gel strength meter, Nakayamadenki Co., Ltd, Osaka).\nSpecifically, by changing the DNA concentrations of an aqueous solution of Tripodona (4-18-18) (X=4) (SEQ ID NOs.: 1, 2 and 3), Tetrapodna (4-18-18) (X=4) (SEQ ID NOs.: 2, 4, 5 and 6), Hexapodna (4-18-18) (X=4) (SEQ ID NOs.: 2, 3, 4, 7, 9 and 10) and Tetrapodna (8-16-16) (X=8) (SEQ ID NOs.: 22, 23, 24 and 25) as shown in the lines of Table 4, and by changing the NaCl concentration as shown in the rows of Table 4, whether or not a gel is formed at various DNA concentrations and NaCl concentrations was evaluated. The results are shown such that the mark “∘” is given to cases in which gelation was observed, and the mark “x” is given to cases of a solution state (sol-state)."}}, "data": [{"molecule": "dsDNA (12-14): double strand DNA, SEQ ID NOs.: 42 and 43, 12-base ends complementary to Tetrapodna (A) (chain 1 GACTGACTCTGAACGTCAGCGTTA; chain 2 GACTGACTCTGATAACGCTGACGT; DNA, all phosphodiester, methylation of C not given here)", "values": [{"measurement": "gel formation singly or on mixing", "setting": "[1]", "result": "did not form a gel singly"}]}, {"molecule": "Tetrapodna (10-15-15): four ODNs, SEQ ID NOs.: 26, 27, 28 and 29, 10-base cohesive protruding end (nucleic acid, DNA, all phosphodiester, methylation of C not given here) DNA 1: ACGTTAACGTTGCACGACATCAGCGTCTGACGCTCGTCGA DNA 2: ACGTTAACGTTCGACGAGCGTCAGATCTCGCAACGCTGCA DNA 3: ACGTTAACGTTGCAGCGTTGCGAGACAGACGCTTGACGCA DNA 4: ACGTTAACGTTGCGTCAAGCGTCTGCGCTGATGTCGTGCA", "values": [{"measurement": "gel formation", "setting": "[1]", "result": "gels can be prepared"}, {"measurement": "initial percentage of gels", "setting": "[2]; DNA 0.5 mM, NaCl 150 mM", "result": "about 100%"}, {"measurement": "percentage of the remaining gels with the passage of time", "setting": "[2]; DNA 0.5 mM, NaCl 150 mM", "result": "decreased with the passage of time only slightly"}]}, {"molecule": "Tetrapodna (A): SEQ ID NOs.: 34, 35, 36 and 37, 12-base non-palindrome cohesive protruding end (nucleic acid, DNA, all phosphodiester, methylation of C not given here) DNA 1: TCAGAGTCAGTCTGCACGACATCACGTTGACGCTCGTCGA DNA 2: TCAGAGTCAGTCTCGACGAGCGTCAATCTCGCAACGTGCA DNA 3: TCAGAGTCAGTCTGCACGTTGCGAGACAGACGCTTGACGA DNA 4: TCAGAGTCAGTCTCGTCAAGCGTCTGCGTGATGTCGTGCA", "values": [{"measurement": "gel formation singly or on mixing", "setting": "[1]", "result": "did not form a gel singly"}]}, {"molecule": "Tetrapodna (B): SEQ ID NOs.: 38, 39, 40 and 41, 12-base end complementary to Tetrapodna (A) (nucleic acid, DNA, all phosphodiester, methylation of C not given here) DNA 1: GACTGACTCTGATGCACGACATCACGTTGACGCTCGTCGA DNA 2: GACTGACTCTGATCGACGAGCGTCAATCTCGCAACGTGCA DNA 3: GACTGACTCTGATGCACGTTGCGAGACAGACGCTTGACGA DNA 4: GACTGACTCTGATCGTCAAGCGTCTGCGTGATGTCGTGCA", "values": [{"measurement": "gel formation singly or on mixing", "setting": "[1]", "result": "did not form a gel singly"}]}, {"molecule": "Tetrapodna (6-17-17): four ODNs, SEQ ID NOs.: 18, 19, 20 and 21, 6-base cohesive protruding end (nucleic acid, unmodified DNA) DNA 1: AACGTTTACGCACGACATCAGCGTCTGGACGCTTCGTCGA DNA 2: AACGTTTCGACGAAGCGTCCAGATCTCGTCAACGCTGCGA DNA 3: AACGTTTCGCAGCGTTGACGAGACAGACGCTGTGACGCTA DNA 4: AACGTTTAGCGTCACAGCGTCTGCGCTGATGTCGTGCGTA", "values": [{"measurement": "gel formation", "setting": "[1]", "result": "gels can be prepared"}, {"measurement": "initial percentage of gels", "setting": "[2]; DNA 0.5 mM, NaCl 150 mM", "result": "about 100%"}, {"measurement": "percentage of the remaining gels with the passage of time", "setting": "[2]; DNA 0.5 mM, NaCl 150 mM", "result": "decreased with the passage of time only slightly"}]}, {"molecule": "Tetrapodna (12-14-14): four ODNs, SEQ ID NOs.: 30, 31, 32 and 33, 12-base palindrome cohesive protruding end (nucleic acid, DNA, all phosphodiester, methylation of C not given here) DNA 1: ACGTCATGACGTTGCACGACATCACGTTGACGCTCGTCGA DNA 2: ACGTCATGACGTTCGACGAGCGTCAATCTCGCAACGTGCA DNA 3: ACGTCATGACGTTGCACGTTGCGAGACAGACGCTTGACGA DNA 4: ACGTCATGACGTTCGTCAAGCGTCTGCGTGATGTCGTGCA", "values": [{"measurement": "gel formation", "setting": "[1]", "result": "gels can be prepared"}, {"measurement": "gel formation (percentage of gels)", "setting": "[2]; DNA 0.1 mM, NaCl 150 mM", "result": "about 25%"}, {"measurement": "percentage of the remaining gels with the passage of time", "setting": "[2]; DNA 0.25 mM, NaCl 150 mM", "result": "the initial percentage of gels was increased, but the percentage of the remaining gels was decreased with the passage of time"}, {"measurement": "time until almost all the formed gels became in a sol state", "setting": "[2]; DNA 0.5 mM, NaCl 5 mM", "result": "about 6 hours"}, {"measurement": "change from a gel into a sol", "setting": "[2]; DNA 0.5 mM, NaCl 50 mM, 12 hours", "result": "about 40%"}, {"measurement": "initial percentage of gels", "setting": "[2]; DNA 0.5 mM, NaCl 100 mM", "result": "about 100%"}, {"measurement": "percentage of the remaining gels with the passage of time", "setting": "[2]; DNA 0.5 mM, NaCl 100 mM", "result": "decreased with the passage of time only slightly"}, {"measurement": "initial percentage of gels", "setting": "[2]; DNA 0.5 mM, NaCl 150 mM", "result": "about 100%"}, {"measurement": "percentage of the remaining gels with the passage of time", "setting": "[2]; DNA 0.5 mM, NaCl 150 mM", "result": "decreased with the passage of time only slightly"}]}, {"molecule": "Tripodna(4-18-18): nucleic acid unit of three ODNs, SEQ ID NOs.: 1, 2 and 3, 4-base palindrome cohesive protruding end, CpG (nucleic acid, unmodified DNA) DNA 1: ACGTTCGTCAACGTCTGTGCTCTCACGTTGACGCTGTCGA DNA 2: ACGTTCGACAGCGTCAACGTGAAACGTGAAGCGTCTGCGA DNA 3: ACGTTCGCAGACGCTTCACGTTGAGCACAGACGTTGACGA", "values": [{"measurement": "gel formation", "setting": "[1]", "result": "gels can be prepared"}, {"measurement": "gelation", "setting": "[3]; Na+ 2 mM, DNA 1.2 mM", "result": "X"}, {"measurement": "gelation", "setting": "[3]; Na+ 2 mM, DNA 1.4 mM", "result": "◯"}, {"measurement": "gelation", "setting": "[3]; Na+ 10 mM, DNA 1.2 mM", "result": "◯"}, {"measurement": "gelation", "setting": "[3]; Na+ 20 mM, DNA 1.0 mM", "result": "X"}, {"measurement": "gelation", "setting": "[3]; Na+ 50 mM, DNA 0.7 mM", "result": "X"}, {"measurement": "gelation", "setting": "[3]; Na+ 50 mM, DNA 0.8 mM", "result": "X"}, {"measurement": "gelation", "setting": "[3]; Na+ 50 mM, DNA 0.9 mM", "result": "X"}, {"measurement": "gelation", "setting": "[3]; Na+ 50 mM, DNA 1.0 mM", "result": "◯"}, {"measurement": "gelation", "setting": "[3]; Na+ 100 mM, DNA 0.7 mM", "result": "◯"}, {"measurement": "gelation", "setting": "[3]; Na+ 100 mM, DNA 0.8 mM", "result": "◯"}, {"measurement": "gelation", "setting": "[3]; Na+ 100 mM, DNA 0.9 mM", "result": "◯"}, {"measurement": "gelation", "setting": "[3]; Na+ 150 mM, DNA 0.6 mM", "result": "X"}]}, {"molecule": "Pentapodna (4-18-18): five ODNs, SEQ ID NOs.: 2, 3, 4, 7 and 8, 4-base cohesive protruding end (nucleic acid, unmodified DNA) DNA 1: ACGTTCGACAGCGTCAACGTGAAACGTGAAGCGTCTGCGA DNA 2: ACGTTCGCAGACGCTTCACGTTGAGCACAGACGTTGACGA DNA 3: ACGTTCGCTGACGTTGCAGACATCACGTTGACGCTGTCGA DNA 4: ACGTTCGTCAACGTCTGTGCTCGCAGCGTCTTAACGTCGA DNA 5: ACGTTCGACGTTAAGACGCTGCTGTCTGCAACGTCAGCGA", "values": [{"measurement": "gel formation", "setting": "[1]", "result": "gels can be prepared"}]}]}
